Our source for the Kd values is publication PMC10041117.

A word on the Kd: it is the constant that tells how readily two partners part at equilibrium. A high value points to lower affinity.

Assay [1] has as its target isolated bovine native thin filaments (NTFs) (bovine), Q3ZC07. The assay can be described thus: co-sedimentation; C0C2 constructs cosedimented with isolated bovine native thin filaments (NTFs); as in ref. 15.
The target in assay [2] is myosin S2Δ (fragment of the S2 region of myosin consisting of its first 128 residues). The assay can be described thus: MST; C0C2 constructs binding to myosin S2Δ; as in refs 15 and 25.
Sequence of myosin S2Δ (fragment of the S2 region of myosin consisting of its first 128 residues) (P12883 838-965, stated change not applied): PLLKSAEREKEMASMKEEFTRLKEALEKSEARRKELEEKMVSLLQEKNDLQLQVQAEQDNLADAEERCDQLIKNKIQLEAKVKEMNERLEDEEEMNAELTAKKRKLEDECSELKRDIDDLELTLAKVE

B1: mTFP-C0C2 (C0C2 of cMyBP-C conjugated to mTFP at its N terminus) (domain or fragment)
chain: MPEPGKRPVSAFTKKPRSVEVTAGSAAVFEAETERSGLKVQWQRDGSDIAANDKYGLAAEGKRHTLTVRDVGPDDQGSYAVIAGSSKVKFDLKVTEPAPPEKAESAVAPTSMEAPETPKEVPALATQLEGNVSSPEGSVSVTQDGSVAGSQGAPDDPIGLFLMRPQDGEVTVGGSIVFSARVAGASLLKPPVVKWFKGKWVDLSSKVGQHLQLHDSYDRASKVYLFELHITDAQATSAGGYRCEVSTKDKFDSCNFNLTVHEAIGSGDLDLRSAFRRTSLAGTGRRTSDSHEDAGTLDFSSLLKKSSFRRDSKLEAPAEEDVWEILRQAPPSEYERIAFQHGVTDLRGMLKRLKGMKHDEKKSTAFQKKLEPAYQVNKGHKIRLTVELADPDAEVKWLKNGQEIQMSGRYIFESIGAKRTLTISQCSLADDAAYQCVVGGEKCSTELFVKEP
modifications: not checked
With B1, the Kd in assay [1] stood at 18 µM; in assay [2], 35 µM.

B2: N-terminal fragment of cMyBP-C containing domains C0 through C2 (C0C2), wild type (domain or fragment)
chain: B1 chain
modifications: not checked
On to B2, for which the values for the Kd in assay [1] and in assay [2] were 42 µM and 20 µM, respectively.
